Measured values: publication PMC5061367

Key:
APOBEC3C I188 (human) [1] = target: APOBEC3C I188 (human) (UniProt Q9NRW3); assay: cross-linking; 0.5 μM protein with 10 μM BS3 in 20 mM Hepes pH 7.5, 150 mM NaCl, 1 mM DTT, 1 hour at 21°C; SDS-PAGE and Western blot with anti-APOBEC3C
APOBEC3C I188 (human) [2] = target: APOBEC3C I188 (human) (UniProt Q9NRW3); assay: SEC; 10 μg of purified enzyme on a 10 mL Superdex 200 column; 50 mM Tris pH 8.0, 200 mM NaCl, 1 mM DTT; masses from a Bio-Rad standard curve; fractions read by SDS-PAGE and Western blot

stoichiometry N (APOBEC3C I188 (human) [1]): 2
stoichiometry N (APOBEC3C I188 (human) [2]): 2
Substance: APOBEC3C I188 (from UniProt Q9NRW3 1-190) (enzyme)
